Source: patent US20190119318A1
Each block holds one substance with its values, some of them ahead of it.

How the values were obtained:
[1] = target: human polyclonal IgG (Gammanorm) (human); assay: column DBC; vs reference Zvar4; 0.5 M NaOH
[2] = target: human polyclonal IgG (Gammanorm) (human); assay: column DBC; ligand […]; after 6 x 4 h 1.0 M NaOH
[3] = target: human polyclonal IgG (Gammanorm) (human); assay: column DBC; ligand […]; after 6 x 4 h 0.5 M NaOH
[4] = target: human polyclonal IgG (Gammanorm) (human); assay: column DBC; vs reference Zvar4; 1.0 M NaOH
[5] = target: human polyclonal IgG (Gammanorm) (human); assay: column DBC, 6 min residence; agarose beads; ligand 7.2 mg/ml
[6] = target: human polyclonal IgG (Gammanorm) (human); assay: column DBC, 6 min residence; agarose beads; ligand […]
[7] = target: human polyclonal IgG (Gammanorm) (human); assay: column DBC; ligand 7.2 mg/ml; after 6 x 4 h 0.5 M NaOH
[8] = target: human polyclonal IgG (Gammanorm) (human); assay: column DBC, 6 min residence; agarose beads; ligand […]; remark: listed apart in the source
[9] = target: human polyclonal IgG (Gammanorm) (human); assay: column DBC; ligand 9.7 mg/ml; after 6 x 4 h 0.5 M NaOH
[10] = target: human polyclonal IgG (Gammanorm) (human); assay: column DBC, 6 min residence; agarose beads; ligand 9.7 mg/ml
[11] = target: human polyclonal IgG (Gammanorm) (human); assay: as above; remark: listed apart in the source
[12] = target: human polyclonal IgG (Gammanorm) (human); assay: column DBC; ligand 9.7 mg/ml; after 6 x 4 h 1.0 M NaOH
[13] = target: human polyclonal IgG (Gammanorm) (human); assay: column DBC, 6 min residence; agarose beads; ligand 7.0 mg/ml
[14] = target: human polyclonal IgG (Gammanorm) (human); assay: column DBC; ligand 7.0 mg/ml; after 6 x 4 h 0.5 M NaOH
[15] = target: human polyclonal IgG (Gammanorm) (human); assay: column DBC, 6 min residence; agarose beads; ligand 10.8 mg/ml
[16] = target: human polyclonal IgG (Gammanorm) (human); assay: column DBC; ligand 10.8 mg/ml; after 6 x 4 h 0.5 M NaOH
[17] = target: human polyclonal IgG (Gammanorm) (human); assay: column DBC; base P10; ligand 19.0 mg/ml
[18] = target: human polyclonal IgG (Gammanorm) (human); assay: column DBC; base A33; ligand […]; details: ligand content 6.5 mg/ml
[19] = target: human polyclonal IgG (Gammanorm) (human); assay: column DBC; base H40; ligand […]; details: ligand content 6.9 mg/ml
[20] = target: human polyclonal IgG (Gammanorm) (human); assay: column DBC; base A63b; ligand 10.6 mg/ml
[21] = target: human polyclonal IgG (Gammanorm) (human); assay: column DBC; base A63b; ligand 6.4 mg/ml
[22] = target: human polyclonal IgG (Gammanorm) (human); assay: column DBC; base A56-2; ligand […]
[23] = target: human polyclonal IgG (Gammanorm) (human); assay: column DBC; base A20; ligand 21.1 mg/ml
[24] = target: human polyclonal IgG (Gammanorm) (human); assay: column DBC; base A56; ligand […]; details: ligand content 7.1 mg/ml
[25] = target: human polyclonal IgG (Gammanorm) (human); assay: SPR; vs reference Zvar6; 0.5 M NaOH
[26] = target: human polyclonal IgG (Gammanorm) (human); assay: column DBC; base C4; ligand 11.2 mg/ml
[27] = target: human polyclonal IgG (Gammanorm) (human); assay: column DBC; base H40; ligand 23.0 mg/ml
[28] = target: human polyclonal IgG (Gammanorm) (human); assay: column DBC; base A20; ligand […]
[29] = target: human polyclonal IgG (Gammanorm) (human); assay: column DBC; base C3; ligand 15.1 mg/ml
[30] = target: human polyclonal IgG (Gammanorm) (human); assay: column DBC; base C4; ligand 15.2 mg/ml
[31] = target: human polyclonal IgG (Gammanorm) (human); assay: column DBC; base A38; ligand 11.6 mg/ml
[32] = target: human polyclonal IgG (Gammanorm) (human); assay: column DBC; base A54; ligand 21.1 mg/ml
[33] = target: human polyclonal IgG (Gammanorm) (human); assay: column DBC; base A56; ligand 15.2 mg/ml
[34] = target: human polyclonal IgG (Gammanorm) (human); assay: SPR; after 100 CIP cycles 0.5 M NaOH
[35] = target: human polyclonal IgG (Gammanorm) (human); assay: column DBC; base A38; ligand […]
[36] = target: human polyclonal IgG (Gammanorm) (human); assay: column DBC; base A63b; ligand 16.7 mg/ml
[37] = target: human polyclonal IgG (Gammanorm) (human); assay: column DBC; base S9; ligand 18.4 mg/ml
[38] = target: human polyclonal IgG (Gammanorm) (human); assay: column DBC; base H35; ligand […]
[39] = target: human polyclonal IgG (Gammanorm) (human); assay: column DBC; base A20; ligand 6.4 mg/ml
[40] = target: human polyclonal IgG (Gammanorm) (human); assay: column DBC; base H35; ligand 12.3 mg/ml
[41] = target: human polyclonal IgG (Gammanorm) (human); assay: column DBC; base A56; ligand 7.9 mg/ml
[42] = target: human polyclonal IgG (Gammanorm) (human); assay: column DBC; base A56; ligand 19.2 mg/ml
[43] = target: human polyclonal IgG (Gammanorm) (human); assay: column DBC; base A56-2; ligand 19.2 mg/ml
[44] = target: human polyclonal IgG (Gammanorm) (human); assay: column DBC; base H35; ligand 20.3 mg/ml
[45] = target: human polyclonal IgG (Gammanorm) (human); assay: column DBC; base A38; ligand 15.8 mg/ml
[46] = target: human polyclonal IgG (Gammanorm) (human); assay: column DBC; base H31; ligand […]
[47] = target: human polyclonal IgG (Gammanorm) (human); assay: column DBC; base H31; ligand 20.0 mg/ml
[48] = target: human polyclonal IgG (Gammanorm) (human); assay: column DBC; base A62a; ligand 9.6 mg/ml
[49] = target: human polyclonal IgG (Gammanorm) (human); assay: column DBC; base C3; ligand […]
[50] = target: human polyclonal IgG (Gammanorm) (human); assay: column DBC; base A54; ligand […]; details: ligand content 6.7 mg/ml
[51] = target: human polyclonal IgG (Gammanorm) (human); assay: column DBC; base A56-2; ligand 12.5 mg/ml
[52] = target: human polyclonal IgG (Gammanorm) (human); assay: column DBC; base C3; ligand 11.9 mg/ml
[53] = target: human polyclonal IgG (Gammanorm) (human); assay: column DBC; base A62a; ligand […]

Substance: Zvar(N11K,H18K,S33K,D37E,A42R,N43A,L44I,K50R,L51Y)4 with an additional N-terminal cysteine (designed binder)
- capacity retention relative to ref. after six 4 h cycles [1]: 1.53
- remaining IgG capacity Qb10 after six 4 h cycles [9]: 52 mg/mL
- remaining IgG capacity after six 4 h cycles [9]: 92%
- initial IgG capacity Qb10 [10]: 56.3 mg/mL
- initial IgG capacity Qb10 [11]: 62.1 mg/mL
- remaining IgG capacity Qb10 after six 4 h cycles [12]: 48.1 mg/mL
- remaining IgG capacity after six 4 h cycles [12]: 77%
- capacity retention relative to ref. after six 4 h cycles [4]: 1.44

Substance: Zvar(Q9A,N11E,N28A,N43A)4 with an additional N-terminal cysteine (designed binder)
- initial IgG capacity Qb10 [13]: 49.1 mg/mL
- capacity retention relative to ref. after six 4 h cycles ([1]; ligand content 7.0 mg/ml): 1.5
- remaining IgG capacity Qb10 after six 4 h cycles [3]: 46.2 mg/mL
- remaining IgG capacity after six 4 h cycles [3]: 93%
- remaining IgG capacity Qb10 after six 4 h cycles [14]: 44.1 mg/mL
- remaining IgG capacity after six 4 h cycles [14]: 90%
- initial IgG capacity Qb10 [8]: 50 mg/mL

Substance: Zvar(Q9A,N11E,Q40V,A42K,N43A,L44I)6 (designed binder)
- Qb10% 6 min [17]: 76 mg/mL
- Qb10% 2.4 min [18]: 44 mg/mL
- Qb10% 6 min [18]: 53 mg/mL
- Qb10% 2.4 min [19]: 50 mg/mL
- Qb10% 6 min [19]: 56 mg/mL
- Qb10% 2.4 min [20]: 49 mg/mL
- Qb10% 6 min [20]: 60 mg/mL
- Qb10% 2.4 min [21]: 42 mg/mL
- Qb10% 6 min [21]: 46 mg/mL
- Qb10% 2.4 min [22]: 50 mg/mL
- Qb10% 6 min [22]: 58 mg/mL
- Qb10% 2.4 min [23]: 44 mg/mL
- Qb10% 6 min [23]: 43 mg/mL
- Qb10% 2.4 min [24]: 48 mg/mL
- Qb10% 6 min [24]: 57 mg/mL
- capacity relative to ref. 100 cycles [25]: 1.3
- Qb10% 2.4 min [26]: 62 mg/mL
- Qb10% 6 min [26]: 74 mg/mL
- Qb10% 2.4 min [27]: 41 mg/mL
- Qb10% 6 min [27]: 65 mg/mL
- Qb10% 2.4 min [28]: 38 mg/mL
- Qb10% 6 min [28]: 64 mg/mL
- Qb10% 2.4 min [29]: 43 mg/mL
- Qb10% 6 min [29]: 61 mg/mL
- Qb10% 2.4 min [30]: 57 mg/mL
- Qb10% 6 min [30]: 82 mg/mL
- Qb10% 2.4 min [31]: 48 mg/mL
- Qb10% 6 min [31]: 72 mg/mL
- Qb10% 2.4 min [32]: 38 mg/mL
- Qb10% 6 min [32]: 65 mg/mL
- Qb10% 2.4 min [33]: 48 mg/mL
- Qb10% 6 min [33]: 76 mg/mL
- remaining capacity 100 cycles [34]: 87%
- Qb10% 2.4 min [35]: 47 mg/mL
- Qb10% 6 min [35]: 57 mg/mL
- Qb10% 2.4 min [36]: 53 mg/mL
- Qb10% 6 min [36]: 69 mg/mL
- Qb10% 2.4 min [37]: 56 mg/mL
- Qb10% 6 min [37]: 75 mg/mL
- Qb10% 2.4 min [38]: 36 mg/mL
- Qb10% 6 min [38]: 49 mg/mL
- Qb10% 2.4 min [39]: 41 mg/mL
- Qb10% 6 min [39]: 56 mg/mL
- Qb10% 2.4 min [40]: 31 mg/mL
- Qb10% 6 min [40]: 54 mg/mL
- Qb10% 2.4 min [41]: 47 mg/mL
- Qb10% 6 min [41]: 55 mg/mL
- Qb10% 2.4 min [42]: 55 mg/mL
- Qb10% 6 min [42]: 80 mg/mL
- Qb10% 2.4 min [43]: 61 mg/mL
- Qb10% 6 min [43]: 82 mg/mL
- Qb10% 2.4 min [44]: 20 mg/mL
- Qb10% 6 min [44]: 43 mg/mL
- Qb10% 2.4 min [45]: 36 mg/mL
- Qb10% 6 min [45]: 62 mg/mL
- Qb10% 2.4 min ([46]; ligand content 6.5 mg/ml): 37 mg/mL
- Qb10% 6 min ([46]; ligand content 6.5 mg/ml): 38 mg/mL
- Qb10% 2.4 min ([46]; ligand content 10.4 mg/ml): 50 mg/mL
- Qb10% 6 min ([46]; ligand content 10.4 mg/ml): 61 mg/mL
- Qb10% 2.4 min [47]: 31 mg/mL
- Qb10% 6 min [47]: 52 mg/mL
- Qb10% 2.4 min [48]: 56 mg/mL
- Qb10% 6 min [48]: 72 mg/mL
- Qb10% 2.4 min [49]: 48 mg/mL
- Qb10% 6 min [49]: 59 mg/mL
- Qb10% 2.4 min [50]: 38 mg/mL
- Qb10% 6 min [50]: 46 mg/mL
- Qb10% 2.4 min [51]: 59 mg/mL
- Qb10% 6 min [51]: 72 mg/mL
- Qb10% 2.4 min [52]: 51 mg/mL
- Qb10% 6 min [52]: 73 mg/mL
- Qb10% 2.4 min [53]: 62 mg/mL
- Qb10% 6 min [53]: 84 mg/mL

Now from value to substance:

- capacity retention relative to ref. after six 4 h cycles ([1]; ligand content 7.2 mg/ml): 1.5
- remaining IgG capacity Qb10 after six 4 h cycles [2]: 56 mg/mL
- remaining IgG capacity after six 4 h cycles [2]: 93%
- remaining IgG capacity Qb10 after six 4 h cycles [3]: 53.6 mg/mL
- remaining IgG capacity after six 4 h cycles [3]: 95%
- capacity retention relative to ref. after six 4 h cycles [4]: 1.67
- initial IgG capacity Qb10 [5]: 49 mg/mL
- initial IgG capacity Qb10 [6]: 60.3 mg/mL
- remaining IgG capacity Qb10 after six 4 h cycles [7]: 44.2 mg/mL
- remaining IgG capacity after six 4 h cycles [7]: 90%
- initial IgG capacity Qb10 [8]: 56.3 mg/mL
Substance: Zvar(Q9A,N11E,Q40V,A42K,N43A,L44I)4 with an additional N-terminal cysteine (designed binder)

- capacity retention relative to ref. after six 4 h cycles [1]: 1.3
- initial IgG capacity Qb10 [15]: 56.9 mg/mL
- remaining IgG capacity Qb10 after six 4 h cycles [16]: 52.5 mg/mL
- remaining IgG capacity after six 4 h cycles [16]: 92%
Substance: Zvar(Q9A,N11K,H18K,D37E,A42R)4 with an additional N-terminal cysteine (designed binder)
